Target: the molecule itself
Experiment: crystal structure; room-temperature (293 K) serial synchrotron crystallography with the CFEL TapeDrive, 2.3 Å, space group I222, one monomer in the asymmetric unit, tetramer generated by symmetry; UOX with 5PMUA bound

B1: Aspergillus flavus urate oxidase (enzyme)
chain: MSAVKAARYGKDNVRVYKVHKDEKTGVQTVYEMTVCVLLEGEIETSYTKADNSVIVATDSIKNTIYITAKQNPVTPPELFGSILGTHFIEKYNHIHAAHVNIVCHRWTRMDIDGKPHPHSFIRDSEEKRNVQVDVVEGKGIDIKSSLSGLTVLKSTNSQFWGFLRDEYTTLKETWDRILSTDVDATWQWKNFSGLQEVRSHVPKFDATWATAREVTLKTFAEDNSASVQATMYKMAEQILARQQLIETVEYSLPNKHYFEIDLSWHKGLQNTGKNAEVFAPQSDPNGLIKCTVGRSSLKSKL
notes: Urate oxidase of Aspergillus flavus, untagged, from a codon-optimized synthetic cDNA in pET24b; One monomer in the asymmetric unit; the tetramer is generated by crystal symmetry; also called UOX; cofactor-free A. flavus urate oxidase
- stoichiometry N: 4
